This note sets out measurements from article doi:10.1101/2024.12.02.626349 (bioRxiv, 2024).

For this assay, the target named is ^15N-labeled wild-type untagged ubiquitin (UniProt P0CG48 1-76, ^15N-labeled). Put plainly: NMR titration.

B1: 6xHis-tagged UBR4-UBL (residues 4340-4463) (domain or fragment)
chain: YPEENEVTEFFVTLEKDPQQEDFLQGRMPGNPYSSNEPGIGPLMRDIKNKICQDCDLVALLEDDSGMELLVNNKIISLDLPVAEVYKKVWCTTNEGEPMRIVYRMRGLLGDATEEFIESLDSTT
B1 displayed a Kd of 124 µM.
